Test results taken from US20250320284A1 (AC IMMUNE, published 2025).

T1: CARD domain of human ASC (human, UniProt Q9ULZ3 107-195)
T1 construct: biotinylated in BLI; also called hCARD; human CARD
T1 sequence: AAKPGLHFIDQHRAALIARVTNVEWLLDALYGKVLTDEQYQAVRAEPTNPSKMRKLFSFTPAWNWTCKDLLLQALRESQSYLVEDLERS

T2: mouse ASC (mouse, UniProt Q9EPB4 1-193)
T2 construct: recombinant mASC in ELISA and SPR; endogenous ASC of J774.A1 cells in Western blot and immunofluorescence; also called mASC
T2 sequence: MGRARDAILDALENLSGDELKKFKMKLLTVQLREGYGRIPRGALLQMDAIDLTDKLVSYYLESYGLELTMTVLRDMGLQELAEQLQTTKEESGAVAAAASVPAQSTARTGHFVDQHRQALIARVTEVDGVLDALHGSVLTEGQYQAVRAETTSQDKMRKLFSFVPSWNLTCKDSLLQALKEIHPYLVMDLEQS


Columns and labels:
[1] = biological target: T3, human ASC (apoptosis associated speck-like protein containing a caspase-recruitment domain) (human, UniProt Q9ULZ3 1-195); assay: SPR, hASC immobilized, Fab in flow;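 note: hASC amine-coupled on a CM5 chip (about 500 RU), Fab analytes measured by single-cycle kinetics in PBS-P+ running buffer, glycine pH 1.7 regeneration between Fabs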
T3 construct: recombinant hASC in ELISA and SPR; endogenous ASC (cytoplasmic or specks) in Western blot and immunofluorescence; also called hASC; PYCARD
T3 sequence (Q9ULZ3 whole entry, the tested form may be a part): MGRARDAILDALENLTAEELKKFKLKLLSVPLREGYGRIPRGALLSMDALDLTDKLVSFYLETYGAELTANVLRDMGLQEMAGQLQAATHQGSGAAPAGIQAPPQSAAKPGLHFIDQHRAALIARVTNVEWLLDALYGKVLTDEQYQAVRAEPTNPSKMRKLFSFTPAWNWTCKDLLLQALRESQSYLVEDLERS

CARD domain of human ASC = biological target: T1, CARD domain of human ASC; assay: ELISA, coated hCARD
[2] = biological target: T3, human ASC (apoptosis associated …); assay: ELISA, coated hASC;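 note: antibody binding to plate-coated recombinant human ASC, read as phosphatase substrate absorbance, EC50 from four-parameter variable-slope fit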
mouse ASC = biological target: T2, mouse ASC; assay: ELISA, coated mASC

Kd [1] [nM]	koff [1] [s⁻¹]	kon [1] [M⁻¹ s⁻¹]	EC50 (CARD domain of human ASC) [nM]	EC50 [2] [nM]	EC50 (mouse ASC) [nM]	binding result (mouse ASC)	Binder
0.091	8.87e-06	99100					hACI-8016-32B6C7-AB1_H9L3 Fab (Fab, V domains shown) VH: EVQLVQSGAEVKKPGESLKISCKISGYSFTDQTIHWVHQMPGKGLEWMGYIYPGDGSAMYNEKFQGQVTISADKSISTAYLQWSSLKASDTAMYYCARPLYSYASYYWFAYWGQGTLVTVSS VL: EIVLTQSPATLSLSPGERATLSCHASQNINVWLSWYQQKPGQAPRLLIYKSSNLHTGIPARFSGSGSGTDFTLTISSLEPEDFAVYYCQQGQSYPLTFGQGTKLEIK
0.079	6.68e-06	84500					hACI-8016-32B6C7-AB1_H5L4 Fab (Fab, V domains shown) VH: QVQLVQSGAEVKKPGSSVKVSCKISGYTFTDQTIHWVRQAPGQGLEWMGYIYPGDGSAMYNEKFQGRVTITADKSTSTAYMELSSLRSEDTAVYYCARPLYSYASYYWFAYWGQGTLVTVSS VL: EIVLTQSPATLSLSPGERATLSCHASQNINVYLSWYQQKPGQAPRLLIYKSSNLHTGIPARFSGSGSGTDFTLTISSLEPEDFAVYYCQQGQSYPLTFGQGTKLEIK
0.086	7.52e-06	87200					hACI-8016-32B6C7-AB1_H6L3 Fab (Fab, V domains shown) VH: QVQLVQSGAEVKKPGSSVKVSCKASGYTFTDQTIHWVRQAPGQGLEWMGYIYPGDGSAMYNEKFQGRVTITADKSTSTAYMELSSLRSEDTAVYYCARPLYSYASYYWFAYWGQGTLVTVSS VL: EIVLTQSPATLSLSPGERATLSCHASQNINVWLSWYQQKPGQAPRLLIYKSSNLHTGIPARFSGSGSGTDFTLTISSLEPEDFAVYYCQQGQSYPLTFGQGTKLEIK
0.049	4.96e-06	101000					hACI-8016-32B6C7-AB1_H14L3 Fab (Fab, V domains shown) VH: QVQLVQSGAEVKKPGSSVKVSCKASGYTFTDQTIHWVRQAPGQGLEWMGYIYPGDSSAMYNEKFQGRVTITADKSTSTAYMELSSLRSEDTAVYYCARPLYSYASYYWFAYWGQGTLVTVSS VL: EIVLTQSPATLSLSPGERATLSCHASQNINVWLSWYQQKPGQAPRLLIYKSSNLHTGIPARFSGSGSGTDFTLTISSLEPEDFAVYYCQQGQSYPLTFGQGTKLEIK
0.052	4.82e-06	103000					hACI-8016-32B6C7-AB1_H15L3 Fab (Fab, V domains shown) VH: QVQLVQSGAEVKKPGSSVKVSCKASGYTFTDQTIHWVRQAPGQGLEWMGYIYPGDASAMYNEKFQGRVTITADKSTSTAYMELSSLRSEDTAVYYCARPLYSYASYYWFAYWGQGTLVTVSS VL: EIVLTQSPATLSLSPGERATLSCHASQNINVWLSWYQQKPGQAPRLLIYKSSNLHTGIPARFSGSGSGTDFTLTISSLEPEDFAVYYCQQGQSYPLTFGQGTKLEIK
0.077	7.03e-06	94000					hACI-8016-32B6C7-AB1_H8L4 Fab (Fab, V domains shown) VH: QVQLVQSGAEVKKPGSSVKVSCKISGYTFTDQTIHWVRQAPGQGLEWMGYIYPGDASAMYNEKFQGRVTITADKSTSTAYMELSSLRSEDTAVYYCARPLYSYASYYWFAYWGQGTLVTVSS VL: EIVLTQSPATLSLSPGERATLSCHASQNINVYLSWYQQKPGQAPRLLIYKSSNLHTGIPARFSGSGSGTDFTLTISSLEPEDFAVYYCQQGQSYPLTFGQGTKLEIK
0.081	7.52e-06	92000					hACI-8016-32B6C7-AB1_H9L4 Fab (Fab, V domains shown) VH: EVQLVQSGAEVKKPGESLKISCKISGYSFTDQTIHWVHQMPGKGLEWMGYIYPGDGSAMYNEKFQGQVTISADKSISTAYLQWSSLKASDTAMYYCARPLYSYASYYWFAYWGQGTLVTVSS VL: EIVLTQSPATLSLSPGERATLSCHASQNINVYLSWYQQKPGQAPRLLIYKSSNLHTGIPARFSGSGSGTDFTLTISSLEPEDFAVYYCQQGQSYPLTFGQGTKLEIK
0.077	8.01e-06	105000					hACI-8016-32B6C7-AB1_H13L3 Fab (Fab, V domains shown) VH: EVQLVQSGAEVKKPGESLKISCKISGYSFTDQTIHWVHQMPGKGLEWMGYIYPGDSSAMYNEKFQGQVTISADKSISTAYLQWSSLKASDTAMYYCARPLYSYASYYWFAYWGQGTLVTVSS VL: EIVLTQSPATLSLSPGERATLSCHASQNINVWLSWYQQKPGQAPRLLIYKSSNLHTGIPARFSGSGSGTDFTLTISSLEPEDFAVYYCQQGQSYPLTFGQGTKLEIK
0.077	8.16e-06	108000					hACI-8016-32B6C7-AB1_H4L3 Fab (Fab, V domains shown) VH: QVQLVQSGAEVKKPGSSVKVSCKISGYSFTDQTIHWVRQAPGQGLEWMGYIYPGDGSAMYNEKFQGRVTITADKSTSTAYMELSSLRSEDTAVYYCARPLYSYASYYWFAYWGQGTLVTVSS VL: EIVLTQSPATLSLSPGERATLSCHASQNINVWLSWYQQKPGQAPRLLIYKSSNLHTGIPARFSGSGSGTDFTLTISSLEPEDFAVYYCQQGQSYPLTFGQGTKLEIK
0.084	7.09e-06	84100					hACI-8016-32B6C7-AB1_H13L4 Fab (Fab, V domains shown) VH: EVQLVQSGAEVKKPGESLKISCKISGYSFTDQTIHWVHQMPGKGLEWMGYIYPGDSSAMYNEKFQGQVTISADKSISTAYLQWSSLKASDTAMYYCARPLYSYASYYWFAYWGQGTLVTVSS VL: EIVLTQSPATLSLSPGERATLSCHASQNINVYLSWYQQKPGQAPRLLIYKSSNLHTGIPARFSGSGSGTDFTLTISSLEPEDFAVYYCQQGQSYPLTFGQGTKLEIK
0.067	5.62e-06	84300					hACI-8016-32B6C7-AB1_H7L4 Fab (Fab, V domains shown) VH: QVQLVQSGAEVKKPGSSVKVSCKISGYTFTDQTIHWVRQAPGQGLEWMGYIYPGDSSAMYNEKFQGRVTITADKSTSTAYMELSSLRSEDTAVYYCARPLYSYASYYWFAYWGQGTLVTVSS VL: EIVLTQSPATLSLSPGERATLSCHASQNINVYLSWYQQKPGQAPRLLIYKSSNLHTGIPARFSGSGSGTDFTLTISSLEPEDFAVYYCQQGQSYPLTFGQGTKLEIK
0.105	8.64e-06	82200					hACI-8016-32B6C7-AB1_H2L3 Fab (Fab, V domains shown) VH: EVQLVQSGAEVKKPGESLKISCKISGYTFTDQTIHWVHQMPGKGLEWMGYIYPGDGSAMYNEKFQGQVTISADKSISTAYLQWSSLKASDTAMYYCARPLYSYASYYWFAYWGQGTLVTVSS VL: EIVLTQSPATLSLSPGERATLSCHASQNINVWLSWYQQKPGQAPRLLIYKSSNLHTGIPARFSGSGSGTDFTLTISSLEPEDFAVYYCQQGQSYPLTFGQGTKLEIK
0.067	5.28e-06	79200					hACI-8016-32B6C7-AB1_H6L4 Fab (Fab, V domains shown) VH: QVQLVQSGAEVKKPGSSVKVSCKASGYTFTDQTIHWVRQAPGQGLEWMGYIYPGDGSAMYNEKFQGRVTITADKSTSTAYMELSSLRSEDTAVYYCARPLYSYASYYWFAYWGQGTLVTVSS VL: EIVLTQSPATLSLSPGERATLSCHASQNINVYLSWYQQKPGQAPRLLIYKSSNLHTGIPARFSGSGSGTDFTLTISSLEPEDFAVYYCQQGQSYPLTFGQGTKLEIK
			2.21	1.98	2.67		ACI-8016-2614C3B2-AB1 (antibody, V domains shown) VH: QVQLQQSDAELVKPGASVKISCKVSGYALTDHSIHWMKQRPEQGLAWIGYMYPGDGSANYNDKFKGKATLTADISSSTAYMQLNSLTSEDSAVYFCTRPYYFGSSYDYFGYWGQGTTLTVSS VL: DIQMNQSPSSLSASLGDTITITCHASQNINVWLSWYQQKPGNVPKLLIYKASKLHTGVSSNFSGSGSGTGFTLTISSLQPEDIGTYYCQQGQSYPYTFGGGTKLEIK
1.01	2.11e-05	20900					ACI-8016-32B6C7-AB1 chimeric Fab (Fab, V domains shown, Fab) VH: QVQLQQSDAELVKPGASVKISCKISGYTFTDQTIHWMNQRPEQGLEWIGYIYPGDGSAMYNEKFRGKATLTADKSSSTAYMQLNSLTSEDSAVYFCARPLYSYASYYWFAYWGQGTLVTVSA VL: DIQMNQSPSSLSASLGDTITITCHASQNINVWLSWYQRKPGNIPKLLIYKSSNLHTGVPSRFSGSGSGTGFTLTISSLQPEDIATYYCQQGQSYPLTFGGGTKLEIK
				0.14		no binding	ACI-8018-2221B7F1-AB1 (antibody, V domains shown) VH: EVQLVESGGGLVKPGGSLKLSCAASGFTFSDSYMYWLRQTPEKRLEWVASISDGGRYTYYSDSVKGRFTISRDNVKNNLYLQMTSLRSEDTAIYYCARGLDYWGQGTTLTVSS VL: DIKMTQSPSSMYASLGERVTITCKASQDINSYLSWFQQKPGKSPKTLIYRANRLVDGVPSRFSGSGSGQDYSLTISSLEYEDMGIYYCLQYAESTWTFGGGTKLEIK
				0.07		no binding	ACI-8016-1112B3D7-AB1 (antibody, V domains shown) VH: QVQLQQSGAELVRPGTSVKLSCKASGYTFTSYWMHWVKQRPGQGLEWIGGIDPSDSYTKYNQKFKAKATLTADTSSSTAYMQLSSLTSEDSAIFYCAREEASTVVAHWYFDVWGTGTTVTVSS VL: DIVLTQSPATLSVTPGDSVSLSCRASQSISNNLHWYQQKSHESPRLLIKYTSQSISGIPSRFSGSGSGTDYTLSINSVETEDFGMYFCQQSNNWPYTFGGGTKLEIK
